B1: recombinant caspase 8 (Calbiochem) (protein)
chain: SESQTLDKVYQMKSKPRGYCLIINNHNFAKAREKVPKLHSIRDRNGTHLDAGALTTTFEELHFEIKPHDDCTVEQIYEILKIYQLMDHSNMDCFICCILSHGDKGIIYGTDGQEAPIYELTSQFTGLKCPSLAGKPKVFFIQACQGDNYQKGIPVETDSEEQPYLEMDLSSPQTRYIPDEADFLLGMATVNNCVSYRNPAEGTWYIQSLCQSLRERCPRGDDILTILTEVNYEVSNKDDKKNMGKQMPQPTFTLRKKLVFPSD
B2: recombinant caspase 1 (Calbiochem) (protein)
chain: NPAMPTSSGSEGNVKLCSLEEAQRIWKQKSAEIYPIMDKSSRTRLALIICNEEFDSIPRRTGAEVDITGMTMLLQNLGYSVDVKKNLTASDMTTELEAFAHRPEHKTSDSTFLVFMSHGIREGICGKKHSEQVPDILQLNAIFNMLNTKNCPSLKDKPKVIIIQACRGDSPGVVWFKDSVGVSGNLSLPTTEEFEDDAIKKAHIEKDFIAFCSSTPDNVSWRHPTMGSVFIGRLIEHMQEYACSCDVEEIFRKVRFSFEQPDGRAQMPTTERVTLTRCFYLFPGH
B3: recombinant caspase 10 (Calbiochem) (protein)
chain: VKTFLEALPQESWQNKHAGSNGNRATNGAPSLVSRGMQGASANTLNSETSTKRAAVYRMNRNHRGLCVIVNNHSFTSLKDRQGTHKDAEILSHVFQWLGFTVHIHNNVTKVEMEMVLQKQKCNPAHADGDCFVFCILTHGRFGAVYSSDEALIPIREIMSHFTALQCPRLAEKPKLFFIQACQGEEIQPSVSIEADALNPEQAPTSLQDSIPAEADFLLGLATVPGYVSFRHVEEGSWYIQSLCNHLKKLVPRMLKFLEKTMEIRGRKRTVWGAKQISATSLPTAISAQTPRPPMRRWSSVS
B4: recombinant caspase 9 (Calbiochem) (protein)
chain: MDEADRRLLRRCRLRLVEELQVDQLWDALLSRELFRPHMIEDIQRAGSGSRRDQARQLIIDLETRGSQALPLFISCLEDTGQDMLASFLRTNRQAAKLSKPTLENLTPVVLRPEIRKPEVLRPETPRPVDIGSGGFGDVGALESLRGNADLAYILSMEPCGHCLIINNVNFCRESGLRTRTGSNIDCEKLRRRFSSLHFMVEVKGDLTAKKMVLALLELAQQDHGALDCCVVVILSHGCQASHLQFPGAVYGTDGCPVSVEKIVNIFNGTSCPSLGGKPKLFFIQACGGEQKDHGFEVASTSPEDESPGSNPEPDATPFQEGLRTFDQLDAISSLPTPSDIFVSYSTFPGFVSWRDPKSGSWYVETLDDIFEQWAHSEDLQSLLLRVANAVSVKGIYKQMPGCFNFLRKKLFFKTS
B5: recombinant caspase 2 (Calbiochem) (protein)
chain: GPVCLQVKPCTPEFYQTHFQLAYRLQSRPRGLALVLSNVHFTGEKELEFRSGGDVDHSTLVTLFKLLGYDVHVLCDQTAQEMQEKLQNFAQLPAHRVTDSCIVALLSHGVEGAIYGVDGKLLQLQEVFQLFDNANCPSLQNKPKMFFIQACRGDETDRGVDQQDGKNHAGSPGCEESDAGKEKLPKMRLPTRSDMICGYACLKGTAAMRNTKRGSWYIEALAQVFSERACDMHVADMLVKVNALIKDREGYAPGTEFHRCKEMSEYCSTLCRHLYLFPGHPPT
B6: recombinant caspase 3 (Calbiochem) (protein)
chain: SGISLDNSYKMDYPEMGLCIIINNKNFHKSTGMTSRSGTDVDAANLRETFRNLKYEVRNKNDLTREEIVELMRDVSKEDHSKRSSFVCVLLSHGEEGIIFGTNGPVDLKKITNFFRGDRCRSLTGKPKLFIIQACRGTELDCGIETDSGVDDDMACHKIPVEADFLYAYSTAPGYYSWRNSKDGSWFIQSLCAMLKQYADKLEFMHILTRVNRKVATEFESFSFDATFHAKKQIPCIVSMLTKELYFYH
B7: recombinant caspase 7 (Calbiochem) (protein)
chain: AKPDRSSFVPSLFSKKKKNVTMRSIKTTRDRVPTYQYNMNFEKLGKCIIINNKNFDKVTGMGVRNGTDKDAEALFKCFRSLGFDVIVYNDCSCAKMQDLLKKASEEDHTNAACFACILLSHGEENVIYGKDGVTPIKDLTAHFRGDRCKTLLEKPKLFFIQACRGTELDDGIQADSGPINDTDANPRYKIPVEADFLFAYSTVPGYYSWRSPGRGSWFVQALCSILEEHGKDLEIMQILTRVNDRVARHFESQSDDPHFHEKKQIPCVVSMLTKELYFSQ
B8: recombinant caspase 6 (Calbiochem) (protein)
chain: AFYKREMFDPAEKYKMDHRRRGIALIFNHERFFWHLTLPERRGTCADRDNLTRRFSDLGFEVKCFNDLKAEELLLKIHEVSTVSHADADCFVCVFLSHGEGNHIYAYDAKIEIQTLTGLFKGDKCHSLVGKPKIFIIQACRGNQHDVPVIPLDVVDNQTEKLDTNITEVDAASVYTLPAGADFLMCYSVAEGYYSHRETVNGSWYIQDLCEMLGKYGSSLEFTELLTLVNRKVSQRRVDFCKDPSAIGKKQVPCFASMLTKKLHFFPKSN

Tests used:
[1] = biological target: HA-tagged human eIF5A1 (wild type), in vitro translated from pHM6-HA-A1
[2] = biological target: HA-tagged human eIF5A1D6E, in vitro translated from pHM6-HA-A1(D6E)
[3] = biological target: HA-tagged human eIF5A1D6E/K50R, in vitro translated from pHM6-HA-A1(D6E/K50R)

| Protein | in vitro cleavage of the biotin-labelled translation product by recombinant caspase (SDS-PAGE, Streptavidin-HRP) [1] | in vitro cleavage of the biotin-labelled translation product by recombinant caspase (SDS-PAGE, Streptavidin-HRP) [2] | in vitro cleavage of the biotin-labelled translation product by recombinant caspase (SDS-PAGE, Streptavidin-HRP) [3] |
| --- | --- | --- | --- |
| B1 | The wild-type eIF5A1 is cleaved by caspases 2, 3, 6, 7, 8, 9, and 10 | HA-tagged eIF5A1D6E and eIF5A1D6E/K50R are effectively cleaved in vitro by caspases 3, 7 and 8 | HA-tagged eIF5A1D6E and eIF5A1D6E/K50R are effectively cleaved in vitro by caspases 3, 7 and 8 |
| B2 | The wild-type eIF5A1 is cleaved by caspases 2, 3, 6, 7, 8, 9, and 10 but not by caspase 1 | – | – |
| B3 | The wild-type eIF5A1 is cleaved by caspases 2, 3, 6, 7, 8, 9, and 10 | are not efficiently cleaved by caspases 9 and 10 | are not efficiently cleaved by caspases 9 and 10 |
| B4 | The wild-type eIF5A1 is cleaved by caspases 2, 3, 6, 7, 8, 9, and 10 | are not efficiently cleaved by caspases 9 and 10 | are not efficiently cleaved by caspases 9 and 10 |
| B5 | The wild-type eIF5A1 is cleaved by caspases 2, 3, 6, 7, 8, 9, and 10 | – | – |
| B6 | The wild-type eIF5A1 is cleaved by caspases 2, 3, 6, 7, 8, 9, and 10 | – | – |
| B7 | The wild-type eIF5A1 is cleaved by caspases 2, 3, 6, 7, 8, 9, and 10 | – | – |
| B8 | The wild-type eIF5A1 is cleaved by caspases 2, 3, 6, 7, 8, 9, and 10 | – | – |

Source: patent publication US20100076062
